{
  "source": "the supplement of paper PMC7877785",
  "assay": "self-splicing fitness, log relative to wild type (ln ratio); higher = more splicing; Tetrahymena group I intron in knt gene, E. coli kanamycin selection, DiMSum; sequences stand for … in CUCUCU…GGAGGGAAAAGUUAUCAGGCAUGCACCUGGUAGCUAGUCUUUAAACCAAUAGAUUGCAUCGGUUUAAAAGGCAAGACCGUCAAAUUGCGGGAAAGGGGUCAACAGCCGUUCAGUACCAAGUCUCAGGGGAAACUUUGAGAUGGCCUUGCAAAGGGUAUGGUAAUAAGCUGACGGACAUGGUCCUAACCACGCAGCCAAGUCCUAAGUCAACAGAUCUUCUGUUGAUAUGGAUGCAGUUCACAGACUAAAUGUCGGUCGGGGAAGAUGUAUUCUUCUCAUAAGAUAUAGUCGGACCUCUCCUUAAUGGGAGCUAGCGGAUGAAGUGAUGCAACACUGGAGCCGCUGGGAACUAAUUUGUAUGCGAAAGUAUAUUGAUUAGUUUUGGAGUACUCGUGGUCG",
  "outline": "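Fitness was computed with DiMSum as the error-weighted combination of replicate fold changes, kanamycin versus none, each normalised to wild type. The library randomised all eight intron nucleotides of the P1ex region, with the intron placed in the knt kanamycin-resistance gene on pET-22b(+) in E. coli BL21(DE3). Six replicate transformations were grown overnight at 37°C or 30°C on LB agar with or without 25 μg/mL kanamycin, plus 100 μg/mL carbenicillin, 50 μM IPTG and 0.2% rhamnose. Pooled colonies were amplicon-sequenced on an Illumina HiSeq 2500.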",
  "note": "± gives the uncertainty stated by the source.",
  "data": [
    {"sequence": "GUGCAGCAAUAUUACGGCCU", "values": [
      {"measurement": "self-splicing fitness (ln)", "setting": "30 °C", "value": "-0.775 ± 0.11"},
      {"measurement": "self-splicing fitness (ln)", "setting": "37 °C", "value": "0.175 ± 0.13"}
    ]},
    {"sequence": "UUCGAGCAAUAUUACGUUUU", "values": [
      {"measurement": "self-splicing fitness (ln)", "setting": "30 °C", "value": "-3.49 ± 0.18"},
      {"measurement": "self-splicing fitness (ln)", "setting": "37 °C", "value": "-2.77 ± 0.2"}
    ]},
    {"sequence": "UACGAGCAAUAUUACGCCCU", "values": [
      {"measurement": "self-splicing fitness (ln)", "setting": "30 °C", "value": "-3.96 ± 0.47"}
    ]},
    {"sequence": "GCUCAGCAAUAUUACGAUAA", "values": [
      {"measurement": "self-splicing fitness (ln)", "setting": "30 °C", "value": "-0.805 ± 0.092"},
      {"measurement": "self-splicing fitness (ln)", "setting": "37 °C", "value": "-0.579 ± 0.11"}
    ]},
    {"sequence": "UACCAGCAAUAUUACGAACU", "values": [
      {"measurement": "self-splicing fitness (ln)", "setting": "30 °C", "value": "-2.26 ± 0.1"},
      {"measurement": "self-splicing fitness (ln)", "setting": "37 °C", "value": "-0.819 ± 0.11"}
    ]},
    {"sequence": "UCAGAGCAAUAUUACGGGUA", "values": [
      {"measurement": "self-splicing fitness (ln)", "setting": "30 °C", "value": "-3.47 ± 0.27"},
      {"measurement": "self-splicing fitness (ln)", "setting": "37 °C", "value": "-2.64 ± 0.31"}
    ]},
    {"sequence": "GUAGAGCAAUAUUACGGUGG", "values": [
      {"measurement": "self-splicing fitness (ln)", "setting": "30 °C", "value": "-3.39 ± 0.45"},
      {"measurement": "self-splicing fitness (ln)", "setting": "37 °C", "value": "-0.894 ± 0.23"}
    ]},
    {"sequence": "UGACAGCAAUAUUACGGAUA", "values": [
      {"measurement": "self-splicing fitness (ln)", "setting": "30 °C", "value": "-1.25 ± 0.095"},
      {"measurement": "self-splicing fitness (ln)", "setting": "37 °C", "value": "-0.669 ± 0.11"}
    ]},
    {"sequence": "UCUAAGCAAUAUUACGGCCG", "values": [
      {"measurement": "self-splicing fitness (ln)", "setting": "30 °C", "value": "-1.36 ± 0.34"},
      {"measurement": "self-splicing fitness (ln)", "setting": "37 °C", "value": "0.444 ± 0.3"}
    ]},
    {"sequence": "AUUAAGCAAUAUUACGUAUA", "values": [
      {"measurement": "self-splicing fitness (ln)", "setting": "30 °C", "value": "-1.48 ± 0.16"},
      {"measurement": "self-splicing fitness (ln)", "setting": "37 °C", "value": "-1.35 ± 0.14"}
    ]},
    {"sequence": "UCUCAGCAAUAUUACGCAAU", "values": [
      {"measurement": "self-splicing fitness (ln)", "setting": "30 °C", "value": "-2.45 ± 0.23"},
      {"measurement": "self-splicing fitness (ln)", "setting": "37 °C", "value": "-1.89 ± 0.23"}
    ]},
    {"sequence": "CAAAAGCAAUAUUACGACAG", "values": [
      {"measurement": "self-splicing fitness (ln)", "setting": "30 °C", "value": "-0.12 ± 0.062"},
      {"measurement": "self-splicing fitness (ln)", "setting": "37 °C", "value": "-0.154 ± 0.083"}
    ]},
    {"sequence": "CGCCAGCAAUAUUACGACAG", "values": [
      {"measurement": "self-splicing fitness (ln)", "setting": "30 °C", "value": "-0.00427 ± 0.052"},
      {"measurement": "self-splicing fitness (ln)", "setting": "37 °C", "value": "0.18 ± 0.067"}
    ]},
    {"sequence": "CUUCAGCAAUAUUACGGAGG", "values": [
      {"measurement": "self-splicing fitness (ln)", "setting": "30 °C", "value": "-3.09 ± 0.21"},
      {"measurement": "self-splicing fitness (ln)", "setting": "37 °C", "value": "-2.09 ± 0.26"}
    ]},
    {"sequence": "GAAGAGCAAUAUUACGUCUU", "values": [
      {"measurement": "self-splicing fitness (ln)", "setting": "30 °C", "value": "-4.83 ± 0.19"},
      {"measurement": "self-splicing fitness (ln)", "setting": "37 °C", "value": "-2.4 ± 0.081"}
    ]},
    {"sequence": "GUCCAGCAAUAUUACGAUCA", "values": [
      {"measurement": "self-splicing fitness (ln)", "setting": "30 °C", "value": "-0.611 ± 0.12"},
      {"measurement": "self-splicing fitness (ln)", "setting": "37 °C", "value": "-0.93 ± 0.13"}
    ]},
    {"sequence": "UAAUAGCAAUAUUACGAGUA", "values": [
      {"measurement": "self-splicing fitness (ln)", "setting": "30 °C", "value": "-2.31 ± 0.14"},
      {"measurement": "self-splicing fitness (ln)", "setting": "37 °C", "value": "-0.79 ± 0.11"}
    ]},
    {"sequence": "ACUUAGCAAUAUUACGGGGC", "values": [
      {"measurement": "self-splicing fitness (ln)", "setting": "30 °C", "value": "-3.2 ± 0.18"},
      {"measurement": "self-splicing fitness (ln)", "setting": "37 °C", "value": "-2.55 ± 0.23"}
    ]},
    {"sequence": "GCUUAGCAAUAUUACGUAGU", "values": [
      {"measurement": "self-splicing fitness (ln)", "setting": "30 °C", "value": "-1.2 ± 0.092"},
      {"measurement": "self-splicing fitness (ln)", "setting": "37 °C", "value": "-0.156 ± 0.11"}
    ]},
    {"sequence": "AUGCAGCAAUAUUACGAGUC", "values": [
      {"measurement": "self-splicing fitness (ln)", "setting": "30 °C", "value": "-3.73 ± 0.25"},
      {"measurement": "self-splicing fitness (ln)", "setting": "37 °C", "value": "-2.32 ± 0.22"}
    ]},
    {"sequence": "CUGUAGCAAUAUUACGCCAU", "values": [
      {"measurement": "self-splicing fitness (ln)", "setting": "30 °C", "value": "-3.3 ± 0.34"}
    ]},
    {"sequence": "GUAGAGCAAUAUUACGCAAG", "values": [
      {"measurement": "self-splicing fitness (ln)", "setting": "30 °C", "value": "-0.744 ± 0.22"},
      {"measurement": "self-splicing fitness (ln)", "setting": "37 °C", "value": "-1.49 ± 0.27"}
    ]},
    {"sequence": "CUGGAGCAAUAUUACGGGGA", "values": [
      {"measurement": "self-splicing fitness (ln)", "setting": "30 °C", "value": "-3.21 ± 0.28"},
      {"measurement": "self-splicing fitness (ln)", "setting": "37 °C", "value": "-2.39 ± 0.37"}
    ]},
    {"sequence": "ACGCAGCAAUAUUACGCCGC", "values": [
      {"measurement": "self-splicing fitness (ln)", "setting": "30 °C", "value": "-3.68 ± 0.29"},
      {"measurement": "self-splicing fitness (ln)", "setting": "37 °C", "value": "-2.42 ± 0.25"}
    ]},
    {"sequence": "AAUAAGCAAUAUUACGCCGU", "values": [
      {"measurement": "self-splicing fitness (ln)", "setting": "30 °C", "value": "-1.24 ± 0.11"},
      {"measurement": "self-splicing fitness (ln)", "setting": "37 °C", "value": "-0.293 ± 0.11"}
    ]},
    {"sequence": "AGGUAGCAAUAUUACGCUCG", "values": [
      {"measurement": "self-splicing fitness (ln)", "setting": "30 °C", "value": "-0.57 ± 0.017"},
      {"measurement": "self-splicing fitness (ln)", "setting": "37 °C", "value": "-0.241 ± 0.036"}
    ]},
    {"sequence": "CUCCAGCAAUAUUACGGGUA", "values": [
      {"measurement": "self-splicing fitness (ln)", "setting": "30 °C", "value": "-1.35 ± 0.067"},
      {"measurement": "self-splicing fitness (ln)", "setting": "37 °C", "value": "-1.11 ± 0.08"}
    ]},
    {"sequence": "UAAAAGCAAUAUUACGGCGU", "values": [
      {"measurement": "self-splicing fitness (ln)", "setting": "30 °C", "value": "-1.12 ± 0.084"},
      {"measurement": "self-splicing fitness (ln)", "setting": "37 °C", "value": "-0.0589 ± 0.1"}
    ]},
    {"sequence": "CGCUAGCAAUAUUACGCGCU", "values": [
      {"measurement": "self-splicing fitness (ln)", "setting": "30 °C", "value": "-3.85 ± 0.25"},
      {"measurement": "self-splicing fitness (ln)", "setting": "37 °C", "value": "-2.75 ± 0.22"}
    ]},
    {"sequence": "UCAAAGCAAUAUUACGGUGU", "values": [
      {"measurement": "self-splicing fitness (ln)", "setting": "30 °C", "value": "-2.8 ± 0.11"},
      {"measurement": "self-splicing fitness (ln)", "setting": "37 °C", "value": "-1.31 ± 0.099"}
    ]},
    {"sequence": "CGGGAGCAAUAUUACGCGGA", "values": [
      {"measurement": "self-splicing fitness (ln)", "setting": "30 °C", "value": "-2.82 ± 0.23"},
      {"measurement": "self-splicing fitness (ln)", "setting": "37 °C", "value": "-2.93 ± 0.28"}
    ]},
    {"sequence": "AUAUAGCAAUAUUACGCCGA", "values": [
      {"measurement": "self-splicing fitness (ln)", "setting": "30 °C", "value": "-2.85 ± 0.48"},
      {"measurement": "self-splicing fitness (ln)", "setting": "37 °C", "value": "-1.13 ± 0.35"}
    ]},
    {"sequence": "GAUAAGCAAUAUUACGGGCA", "values": [
      {"measurement": "self-splicing fitness (ln)", "setting": "30 °C", "value": "-1.65 ± 0.12"},
      {"measurement": "self-splicing fitness (ln)", "setting": "37 °C", "value": "-0.177 ± 0.13"}
    ]},
    {"sequence": "GUGUAGCAAUAUUACGUAGC", "values": [
      {"measurement": "self-splicing fitness (ln)", "setting": "30 °C", "value": "-3.09 ± 0.23"},
      {"measurement": "self-splicing fitness (ln)", "setting": "37 °C", "value": "-1.41 ± 0.28"}
    ]},
    {"sequence": "CGGAAGCAAUAUUACGUCAC", "values": [
      {"measurement": "self-splicing fitness (ln)", "setting": "37 °C", "value": "-1.76 ± 0.4"}
    ]},
    {"sequence": "AGGGAGCAAUAUUACGUGUC", "values": [
      {"measurement": "self-splicing fitness (ln)", "setting": "30 °C", "value": "-3.95 ± 0.47"},
      {"measurement": "self-splicing fitness (ln)", "setting": "37 °C", "value": "-2.69 ± 0.26"}
    ]},
    {"sequence": "GUUGAGCAAUAUUACGGGCC", "values": [
      {"measurement": "self-splicing fitness (ln)", "setting": "30 °C", "value": "-3.53 ± 0.5"},
      {"measurement": "self-splicing fitness (ln)", "setting": "37 °C", "value": "-1.82 ± 0.39"}
    ]},
    {"sequence": "AAUGAGCAAUAUUACGUACA", "values": [
      {"measurement": "self-splicing fitness (ln)", "setting": "30 °C", "value": "-2.3 ± 0.36"},
      {"measurement": "self-splicing fitness (ln)", "setting": "37 °C", "value": "-3.21 ± 0.33"}
    ]}
  ]
}
